Test results: patent US20230183354A1 (IMMIOS HOLDING B V, published 2023)
Where a chain is given by its changes, count along the chain named. Each block holds one binder with its values, some of them ahead of it.

How the values were obtained:
murine CD103 = target: T1, murine CD103 (mouse, UniProt Q60677 20-1167); assay: flow cytometry on mouse spleen and thymus cells
T1 construct: whole, on cells; also called murine CD103+ T cells; mouse CD103
T1 sequence (looked up): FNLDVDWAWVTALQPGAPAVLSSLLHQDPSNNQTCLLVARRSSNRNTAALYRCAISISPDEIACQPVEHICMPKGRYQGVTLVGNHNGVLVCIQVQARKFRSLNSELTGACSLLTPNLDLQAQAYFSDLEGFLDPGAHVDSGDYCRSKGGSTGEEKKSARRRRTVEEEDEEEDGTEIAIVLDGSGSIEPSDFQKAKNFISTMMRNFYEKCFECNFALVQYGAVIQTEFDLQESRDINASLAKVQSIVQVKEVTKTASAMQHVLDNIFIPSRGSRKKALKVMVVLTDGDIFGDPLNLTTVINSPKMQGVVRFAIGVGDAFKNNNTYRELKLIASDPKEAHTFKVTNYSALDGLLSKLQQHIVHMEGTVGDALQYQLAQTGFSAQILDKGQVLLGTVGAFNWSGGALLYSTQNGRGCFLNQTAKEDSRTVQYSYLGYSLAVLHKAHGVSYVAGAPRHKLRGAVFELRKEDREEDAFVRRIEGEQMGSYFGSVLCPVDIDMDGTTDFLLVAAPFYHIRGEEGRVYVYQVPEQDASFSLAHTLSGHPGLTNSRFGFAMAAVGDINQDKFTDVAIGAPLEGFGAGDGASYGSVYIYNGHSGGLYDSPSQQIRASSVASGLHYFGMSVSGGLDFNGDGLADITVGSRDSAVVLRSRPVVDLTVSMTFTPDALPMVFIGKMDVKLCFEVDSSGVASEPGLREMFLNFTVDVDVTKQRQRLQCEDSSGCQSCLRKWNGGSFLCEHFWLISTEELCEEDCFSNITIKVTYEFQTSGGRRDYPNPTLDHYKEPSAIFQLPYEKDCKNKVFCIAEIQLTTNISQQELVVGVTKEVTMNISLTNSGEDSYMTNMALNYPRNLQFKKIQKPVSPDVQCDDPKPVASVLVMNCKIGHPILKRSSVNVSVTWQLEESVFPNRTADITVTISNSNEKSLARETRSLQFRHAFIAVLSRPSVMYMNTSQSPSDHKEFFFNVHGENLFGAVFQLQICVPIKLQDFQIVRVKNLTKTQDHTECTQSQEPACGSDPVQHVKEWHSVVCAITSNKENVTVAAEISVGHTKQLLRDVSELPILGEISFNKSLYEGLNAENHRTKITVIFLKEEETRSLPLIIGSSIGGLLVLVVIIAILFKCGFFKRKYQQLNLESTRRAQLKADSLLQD
Description: Additional aliquots were stained with relevant isotype controls or as fluorescence minus one controls (“FMO” controls are cells stained with all the fluorophores minus one fluorophore; the relevant isotype controls contain either a directly labeled unspecific isotype antibody or an unspecific isotype antibody combined with secondary detection reagent). Percentage binding of fluorescently labeled mAbs was determined using flow cytometry. Maximum binding was set at 100%. […] Data analysis was performed with FlowJo v10 (Tree Star) and surface receptor levels were expressed as mean fluorescent intensity (MFI).

[1] = target: T2, human CD103 (integrin Alpha-E) / human integrin Beta-7 heterodimer on cells (human, UniProt P38570 19-1179; P26010 20-798); assay: flow cytometry competition on CD103+CD8+ T cells; pre-incubation with unlabeled 02A; table n=1
T2 construct: the assay field tells which cells; also called hCD103/hBeta7; CHO.K1-hCD103/hBeta7
Description: Percentage binding of fluorescently labeled mAbs was determined using flow cytometry. Maximum binding was set at 100%.
Percentage binding of fluorescently labeled mAbs was determined using flow cytometry. Maximum binding was set at 100%

T2 sequence (P38570 19-1179 limits assumed, chain 1 of 2): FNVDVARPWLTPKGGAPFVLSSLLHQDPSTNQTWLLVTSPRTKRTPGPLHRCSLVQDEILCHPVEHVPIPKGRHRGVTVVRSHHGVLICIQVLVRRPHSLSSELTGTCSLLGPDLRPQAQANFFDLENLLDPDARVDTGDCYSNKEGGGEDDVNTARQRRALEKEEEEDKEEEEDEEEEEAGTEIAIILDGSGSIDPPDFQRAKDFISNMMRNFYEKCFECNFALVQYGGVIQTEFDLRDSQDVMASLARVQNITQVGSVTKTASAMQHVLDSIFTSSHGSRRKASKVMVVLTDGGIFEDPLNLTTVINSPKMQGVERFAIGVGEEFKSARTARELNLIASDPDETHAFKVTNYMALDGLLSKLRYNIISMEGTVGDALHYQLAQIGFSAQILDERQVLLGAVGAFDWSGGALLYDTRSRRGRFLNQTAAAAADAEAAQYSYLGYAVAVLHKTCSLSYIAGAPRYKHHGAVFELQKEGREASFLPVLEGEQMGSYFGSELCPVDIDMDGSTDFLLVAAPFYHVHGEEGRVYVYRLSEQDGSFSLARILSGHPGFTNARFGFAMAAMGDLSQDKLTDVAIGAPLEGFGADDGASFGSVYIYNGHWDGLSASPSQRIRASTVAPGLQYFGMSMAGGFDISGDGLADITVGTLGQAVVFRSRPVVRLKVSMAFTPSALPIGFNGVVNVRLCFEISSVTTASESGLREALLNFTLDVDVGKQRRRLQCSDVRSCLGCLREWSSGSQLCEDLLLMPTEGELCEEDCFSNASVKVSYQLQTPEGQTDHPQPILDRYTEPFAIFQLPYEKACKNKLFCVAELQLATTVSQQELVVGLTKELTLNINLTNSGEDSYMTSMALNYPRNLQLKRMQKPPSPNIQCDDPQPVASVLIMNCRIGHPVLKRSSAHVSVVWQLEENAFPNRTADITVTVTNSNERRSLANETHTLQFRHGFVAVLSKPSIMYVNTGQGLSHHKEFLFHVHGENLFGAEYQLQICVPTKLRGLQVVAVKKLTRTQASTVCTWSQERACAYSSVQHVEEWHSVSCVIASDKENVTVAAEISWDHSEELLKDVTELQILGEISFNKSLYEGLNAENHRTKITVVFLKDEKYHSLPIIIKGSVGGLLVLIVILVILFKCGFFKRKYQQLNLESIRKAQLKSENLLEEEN
T2 sequence (P26010 20-798 limits assumed, chain 2 of 2): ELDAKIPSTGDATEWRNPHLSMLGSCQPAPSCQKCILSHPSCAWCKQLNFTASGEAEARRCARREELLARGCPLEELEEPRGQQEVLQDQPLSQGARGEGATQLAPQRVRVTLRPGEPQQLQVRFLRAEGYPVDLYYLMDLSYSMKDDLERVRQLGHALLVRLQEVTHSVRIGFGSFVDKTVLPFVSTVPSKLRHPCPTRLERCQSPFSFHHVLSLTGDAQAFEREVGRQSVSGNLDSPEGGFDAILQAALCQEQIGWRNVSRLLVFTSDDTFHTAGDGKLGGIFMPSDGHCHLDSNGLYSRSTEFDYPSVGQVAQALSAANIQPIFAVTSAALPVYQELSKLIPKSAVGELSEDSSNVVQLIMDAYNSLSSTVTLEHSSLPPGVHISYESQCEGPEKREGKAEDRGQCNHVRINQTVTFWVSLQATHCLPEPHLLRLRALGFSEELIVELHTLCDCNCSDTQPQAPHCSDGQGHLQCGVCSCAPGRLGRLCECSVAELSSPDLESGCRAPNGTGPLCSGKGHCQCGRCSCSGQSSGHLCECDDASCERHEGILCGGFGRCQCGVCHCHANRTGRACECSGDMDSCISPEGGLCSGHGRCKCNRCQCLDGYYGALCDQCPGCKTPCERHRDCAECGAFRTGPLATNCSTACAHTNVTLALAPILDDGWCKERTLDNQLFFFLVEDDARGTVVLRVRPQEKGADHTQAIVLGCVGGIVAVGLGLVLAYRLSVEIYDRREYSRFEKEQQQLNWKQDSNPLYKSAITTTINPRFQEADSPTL

- binding result (murine CD103): no binding
- % binding of the fluorescently labeled mAb (IgG pre-incubation = 100) [1]: 104%
B1: hCD103.06A (antibody, mouse IgG1, V domains shown)
VH: QVQLQQPGSELVRPGASVKLSCKASGYTFTSYWMHWVKQRHGQGLEWIGNIYPGSGSTNYDEKFKSKGTLTVDTSSSTAYMHLSSLTSEDSAVYYCTRGVYDNPYYFDYWGQGTTLTVSS
VL: DIQMTQSSSNLSVSLGGRVTITCKASDHINNWLAWYQQKPGNAPRVLISGATSLETGVPSRFSGSGSGKDYTLSITSLQTEDVATYYCQQYWSIPLTFGAGTKLELK
notes: also called clone 06A; hCD103.06 mAb

- binding result (murine CD103): no binding
- % binding of the fluorescently labeled mAb (IgG pre-incubation = 100) [1]: 4.3%
B2: hCD103.05A (antibody, mouse IgG1, V domains shown)
VH: EVQLQQSGPELEKPGASAKISCKASGYSFTGYNMNWVKQSNGKSLEWIGNIDPYYGGTSYNQKFKGKATLTVDKSSSTAYMQLKSLTSEDSAVYYCARSFYGYDAGSPYNYAMDYWGQGTPVTVSP
VL: DIVMTQSHKFMSTSVGDRVSITCKASQDVGTFVAWYQQKPGQSPKLLIYWASTRHTGVPDRFTGSGSGTDFTLTISNVQSEDLADYFCHQYSSYPYTFGGGTQLEIK
notes: Also tested labelled with AF647, conjugated with Df and labelled with 89Zr; these are written under this molecule; also called clone 05A; hCD103.05 mAb

- binding result (murine CD103): no binding
- % binding of the fluorescently labeled mAb (IgG pre-incubation = 100) [1]: 0.5%
B3: hCD103.07A (antibody, mouse IgG1, V domains shown)
VH: EVQLQESGPSLVKPSQTLSLTCSVTGDSITSGYWNWIRKFPGNKLEYMGYITYSGSTYYNPSLKSRISITRDTSKNQYYLQLNSVTTEDTATYYCARNYYGSSSMDYWGQGTSVTVSS
VL: DIVMTQSQKFMSTSVADRVSVTCKASQNVGSDVAWYQQKPGQSPKSLIYSASYRYSGVPDRFTGSGSGTDFTLTISNVQSEDLAEYFCQQYNSYPSTFGGGTKLEIK
notes: also called clone 07A

- binding result (murine CD103): no binding
- % binding of the fluorescently labeled mAb (IgG pre-incubation = 100) [1]: 2.3%
B4: hCD103.01A (antibody, V domains shown)
VH: B3 VH with A96T, N98H, S103D, S104A
VL: DIVMTQSHKFMSTSVGDRVSITCKASQDVSIAVAWYQQRPGQSPKLLIYSASYRYTGVPDRFTGSGSGTDFTFTISSVQAEDLAVYYCQQHYSTPWTFGGGTKLEIK
notes: Also tested labelled with AF647, conjugated with Df and labelled with 89Zr; these are written under this molecule; also called clone 01A; hCD103.01 mAb
